Values quoted from earlier work, collected in patent US8840883B2, “Metallo-protein and tocotrienol (MP-T3) compositions with non-protein-type metal chelator and uses thereof” (Naidu LP, priority 2007, dated 2014).

System: macrophages incubated with acetylated low-density lipoproteins (LDL)

B1: bovine milk LF: bi-lobed glycoprotein of the transferrin family of iron-binding metallo-proteins, from bovine milk (protein, UniProt P24627 20-708, looked up)
Lactotransferrin: APRKNVRWCTISQPEWFKCRRWQWRMKKLGAPSITCVRRAFALECIRAIAEKKADAVTLDGGMVFEAGRDPYKLRPVAAEIYGTKESPQTHYYAVAVVKKGSNFQLDQLQGRKSCHTGLGRSAGWIIPMGILRPYLSWTESLEPLQGAVAKFFSASCVPCIDRQAYPNLCQLCKGEGENQCACSSREPYFGYSGAFKCLQDGAGDVAFVKETTVFENLPEKADRDQYELLCLNNSRAPVDAFKECHLAQVPSHAVVARSVDGKEDLIWKLLSKAQEKFGKNKSRSFQLFGSPPGQRDLLFKDSALGFLRIPSKVDSALYLGSRYLTTLKNLRETAEEVKARYTRVVWCAVGPEEQKKCQQWSQQSGQNVTCATASTTDDCIVLVLKGEADALNLDGGYIYTAGKCGLVPVLAENRKSSKHSSLDCVLRPTEGYLAVAVVKKANEGLTWNSLKDKKSCHTAVDRTAGWNIPMGLIVNQTGSCAFDEFFSQSCAPGADPKSRLCALCAGDDQGLDKCVPNSKEKYYGYTGAFRCLAEDVGDVAFVKNDTVWENTNGESTADWAKNLNREDFRLLCLDGTRKPVTEAQSCHLAVAPNHAVVSRSDRAAHVKQVLLHQQALFGKNGKNCPDKFCLFKSETKNLLFNDNTECLAKLGGRPTYEEYLGTEYVTAIANLKKCSTSPLLEACAFLTR
In the case of B1, the “decrease of accumulation of CE in macrophages” value is given as “more than 80%”.
